Experimental data published in US20100093090A1, “METHOD AND KIT FOR EFFICIENT REPROGRAMMING OF SOMATIC CELLS” (priority 2008, published 2010).

Assays:
[1] = test system: human adult foreskin fibroblast (hAFF) cells; test: Human iPS cell generation from fibroblasts by lentiviral transduction of reprogramming factors (colony counting, AP staining, GFP silencing); assay type: cell-based
Experimental: 5×10^4 cells were plated onto a 10-cm dish. Shown are numbers of total colonies and AP-highly positive colonies (in parenthesis) counted on day 18 post-transduction. “4” indicates the reported four reprogramming factors OCT4 (O), SOX2 (S), KLF4 (K) and c-MYC (M). […] (C-E): Total colony numbers (left panels), highly AP-positive colony numbers (middle panels) and iPS colony numbers (right panels). The colony number shown are those induced from 10^5 cells plated on the feeder cells by different combinations of factors. The results of three independent experiments are shown with different colors. […] Numbers were counted on day 25 post-transduction; (D) The six factors (4PU) combination minus the reported four reprogramming factors, respectively. (Da and Db) Numbers were counted on day 25 post-transduction. (Dc) Numbers were counted on day 35 post-transduction. […] Numbers were counted on day 35 post-transduction.
Lentiviral vector containing OCT4, SOX2, c-MYC, KLF4, UTF1, p53 siRNA and control p53 siRNA respectively (15 μg) together with pMDLg/pRRE, RSV/Rev and VSV-G (FIG. 13 A, B, C) (5 μg for each), were respectively transfected into 293T cells with the Ca3(PO4)2-method in 10-cm dishes and incubated overnight. 12 hours later, the medium was changed and virus was collected after subsequent 36 hours cultivation. Viral supernatant was collected and filtered through 0.45 μm filters (Millipore) and then placed onto target fibroblasts supplemented with 10 ng/μl polybrene (Sigma-Aldrich). Typically, 1×10^5 fibroblasts in a well of 6-well plate were infected with 250 μl viral supernatant of each gene. The viral supernatant was changed with fibroblast culture medium after 12 hours. […] 5-6 days later, the infected cells were collected, counted, and plated onto MEF feeders (typically 2×10^4 to 1×10^5 cells for a 10-cm dish). […] The efficiency to generate iPS cells was calculated according to Takahashi's method, by which the number of cell colonies was counted and divided by the number of cells plated onto feeders (Takahashi et. al., 2007) (FIGS. 1C, 1D, 1E, 5C, and 5D). […]

p53 = test: Knockdown of p53 expression by p53 shRNA in hAFF; assay type: cell-based, human; conditions: nonsense siRNA as control
[2] = test system: iPS cell generation efficiency; test: iPS cell generation in presence of HDAC inhibitors (VPA, SBHA, Butyrate); assay type: cell-based
Experimental: FIG. 10. The colony number shown are those induced from 10^4 cells plated on the feeder cells by different combinations of factors. IPS colony numbers were counted on day 25 post-transduction. (O: OCT4; S:SOX2; K: KLF4; G: GFP; P: P53siRNA; U: UTF1). (A) In presence of VPA, iPS cell generation efficiency could be enhanced by UTF1 or P53 siRNA, or their combination. […] VS: VPA+SBHA; VB: VPA+Butyrate. The working concentrations of VPA, SBHA and Butyrate in this study were 0.5 mM, 2 μM, 0.1 mM, respectively.
Recently, it is reported that iPS cells could be generated when contacting with HDAC inhibitors (and/or other compounds) by a much higher efficiency. We further tested whether UTF1 and p53 siRNA would still work in the context of HDAC inhibitors.

[3] = with the four factors, day 25 post-transduction

B1: p53 siRNA: lentiviral pLL3.7-encoded shRNA against p53; DNA sequence encoding it GACTCCAGTGGTAATCTACT (SEQ ID NO: 6 and 7) (nucleic acid)
DNA 1: TGACTCCAGTGGTAATCTACTTCAAGAGAGTAGATTACCACTGGAGTCTTTTTTC
DNA 2: TCGAGAAAAAAGACTCCAGTGGTAATCTACTCTCTTGAAGTAGATTACCACTGGAGTCA
[1]; together with Oct4, Sox2 and Klf4, without c-Myc, about 1 month post-infection, on average
  iPS cells obtained out of every 100,000 human adult fibroblast cells after infection: about 30
[1]; [3]
  highly AP-positive colony numbers and iPS colony numbers: did not further exert its effect
  total numbers of cell colonies: dramatically enhanced
p53
  knockdown of p53 expression: efficient
[2]; VPA 0.5 mM, 10^4 cells plated, day 25 post-transduction
  reprogramming efficiency when VPA was added: enhance the reprogramming efficiency significantly
[2]; VPA+SBHA or VPA+Butyrate, 0.5 mM, 2 μM, 0.1 mM, day 25
  reprogramming efficiency in presence of two HDAC inhibitor combination: enhances reprogramming efficiency
